For eleven molecules, IC50 and Kd results are on record in patent US20050037394, “Method for in vitro selection of 2'-substituted nucleic acids” (published 2005).

Series [1] deals with T1, IFN-gamma (Homo sapiens, UniProt P01579 P01579:24-161). The series is described as follows: inhibition; IFN-gamma/IFN-gamma-R1 ELISA day 1; day 2 70 nM. Particulars: tags: R&D Systems, Minneapolis; chain copies: 2; label: 5'-32P. On the procedure:
(§1) IFN-γ ELISA: The following ELISA method was used to measure the ability of IFN-γ aptamers to inhibit hIFN-γ from binding to the IFNγ-R1 receptor. To capture the IFNγ-R1, 175 ng of IFNγ-R1 (R&D systems, Minneapolis, Minn.) in 100 μl of PBS (pH 7.4) was incubated in each well of a Nunc Maxisorb plate (Nunc, Rochester, N.Y.) for 2 hours at room temperature. The solution was discarded and the plate was washed 3 times with 200 μl of TBS-T (25 mM Tris-HCl pH 7.5, 150 mM NaCl and 0.01% Tween −20). The plate was then blocked with 200 μl of 5% nonfat dry milk in TBS-T for 30 minutes at room temperature. After blocking, the plate was washed 3 times with 200 μl of TBS-T. Then, 100 μl of various concentrations of aptamers mixed with 5 nmoles of IFN-γ (R & D Systems) were incubated in appropriate wells for 1.5 hours at room temperature. […] Subsequently, 100 μl of 2 N H₂SO₄ was added to stop the reaction and the plate was read in a SpectraMax 96 well plate reader at […].
(§2) IFNγ-R1 Binding Inhibition with hIFN-γ Aptamers: Five full length and 2 minimized aptamers to IFN-γ were tested for receptor binding inhibition activity using the ELISA method described above. […] IC₅₀'s for the duplicate assays were calculated and are shown in Table 22 below along with Kd values for each of the respective aptamers.
On the technique in general: An ELISA detects its analyte on a solid surface through an enzyme-linked reagent.

For series [2], the target named is T1, IFN-gamma. The experiment in a line: filter; 1x DPBS, 0.1 mg/ml BSA; Table 21 gives 167.31. Particulars: tags: R&D Systems, Minneapolis; chain copies: 2; label: 5'-32P.
In series [3] the target is T1, IFN-gamma. The series is described as follows: inhibition; ELISA day 2; text assigns ARC872 to E3 but printed sequence matches F3. Particulars: tags: R&D Systems, Minneapolis; chain copies: 2; putative G4. The procedure:
as §1, §2

Series [4] has as its target T1, IFN-gamma. The series is described as follows: filter; 1x DPBS, 0.1 mg/ml BSA; Table 21 gives 169.28. The following applies: tags: R&D Systems, Minneapolis; chain copies: 2; label: 5'-32P.
Series [5] addresses T1, IFN-gamma. The experiment in a line: inhibition; IFN-gamma/IFN-gamma-R1 ELISA day 1; day 2 270 nM. Particulars: tags: R&D Systems, Minneapolis; chain copies: 2; label: 5'-32P. On the procedure:
as §1, §2

In series [6] the target is T2, VEGF (UniProt P15692-4 P15692-4:27-191). The experiment in a line: filter; dot-blot in PBS. The following applies: chain copies: 2. On the procedure:
(§3) Binding assays were performed with trace ³²P-body-labelled transcripts that were incubated with various protein concentrations in silanized wells, these were then passed through a sandwich of a nitrocellulose membrane over a nylon membrane. Protein-bound RNA is visualized on the NC membrane, unbound RNA on the nylon membrane. The proportion binding is then used to calculate affinity (see FIGS. 4, 5, and 6). The nomenclature “mGXG” indicates a substitution of 2′-OH G for 2′-OMe G at position “X”, as numbered sequentially from the 5′-terminus. Thus, mG7G ARC224 is ARC224 with a 2′-OH at position 7. ARC225 is ARC224 with 2′-OMe to 2′-OH substitutions at positions 7, 10, 14, 16, 19, 22 and 24. All constructs (initially identified by SELEX™) were generated by solid-phase chemical synthesis.

Series [7] has as its target T3, Complement C5 full length (Homo sapiens, UniProt P01031;P01031 P01031:19-673,P01031:678-1676). The series is described as follows: inhibition; 0.2% human serum, sheep erythrocytes, GVB++, 25 C. Particulars: tags: Quidel Corporation, San Diego. On the procedure: Hemolysis Assay: The effect of the AMX221.E1 clone on the classical pathway of the complement system was analyzed using a hemolysis assay compared to both ARC186 (Anti-C5 aptamer, positive control) and unselected dRmY pool (negative control). In the assay of hemolytic inhibition, a solution of 0.2% whole human serum was mixed with antibody-coated sheep erythrocytes (Diamedix EZ Complement CH50 Test, Diamedix Corporation, Miami, Fla.) in the presence oftitrated AMX221.E1. The assay was run in veronal-buffered saline containing calcium, magnesium and 1% gelatin (GVB⁺⁺ complement buffer) and incubated for 1 hr at 25° C. After incubation the samples were centrifuged. The optical density at 415 nm (OD₄₁₅) of the supernatant was read. The inhibition of hemolysis activity is expressed as % hemolysis activity compared to control. The IC₅₀ of the clone was calculated to be about 30 nM.

For series [8], the target named is T3, Complement C5 full length. The experiment in a line: filter; 1x DPBS, extent of binding 20%. The following applies: tags: Quidel Corporation, San Diego.
Series [9] concerns the target T1, IFN-gamma. The experiment in a line: inhibition; ELISA day 2; text assigns ARC873 to F3 but printed sequence matches E3. The following applies: tags: R&D Systems, Minneapolis; chain copies: 2; putative G4. The procedure: as §1, §2
In series [10] the target is T1, IFN-gamma. The series is described as follows: filter; 1x DPBS, 0.1 mg/ml BSA; Table 21 gives 206. Particulars: tags: R&D Systems, Minneapolis; chain copies: 2; label: 5'-32P.
For series [11], the target named is T2, VEGF. The experiment in a line: FP; placeholder corrected: dot-blot nitrocellulose/nylon filter in PBS. Particulars: chain copies: 2. On the procedure: as §3
In series [12] the target is T2, VEGF. The series is described as follows: competition; 125I-VEGF binding to HUVEC. The following applies: chain copies: 2. The source says: FIG. 5 is a plot of ARC224 and ARC225 binding to VEGF. […] The supernatant was removed, the cells were washed, and bound VEGF was counted in a scintillation counter. ARC225 has the same sequence as ARC224 and 2′-OMe to 2′-OH substitutions at positions 7, 10, 14, 16, 19, 22 and 24 numbered from the 5′-terminus.

For series [13], the target named is T1, IFN-gamma. The experiment in a line: filter; 1x DPBS, 0.1 mg/ml BSA; Table 21 gives 227.87. Particulars: tags: R&D Systems, Minneapolis; chain copies: 2; label: 5'-32P.
In series [14] the target is T1, IFN-gamma. The series is described as follows: inhibition; IFN-gamma/IFN-gamma-R1 ELISA day 1; day 2 190 nM. The following applies: tags: R&D Systems, Minneapolis; chain copies: 2; label: 5'-32P. On the procedure:
as §1, §2

Series [15] concerns the target T1, IFN-gamma. The series is described as follows: filter; 1x DPBS, 0.1 mg/ml BSA; Table 21 gives 97. The following applies: tags: R&D Systems, Minneapolis; chain copies: 2; label: 5'-32P.
Series [16] has as its target T1, IFN-gamma. The series is described as follows: inhibition; IFN-gamma/IFN-gamma-R1 ELISA day 1; day 2 100 nM. The following applies: tags: R&D Systems, Minneapolis; chain copies: 2; label: 5'-32P. The procedure: as §1, §2

T1 sequence (P01579 24-161, one chain of several): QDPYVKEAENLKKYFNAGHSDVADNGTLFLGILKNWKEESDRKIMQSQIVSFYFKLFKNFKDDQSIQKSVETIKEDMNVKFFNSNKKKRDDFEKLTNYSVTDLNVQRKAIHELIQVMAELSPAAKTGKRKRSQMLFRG
T2 sequence (P15692 other isoform, or with tags, fused parts or gaps): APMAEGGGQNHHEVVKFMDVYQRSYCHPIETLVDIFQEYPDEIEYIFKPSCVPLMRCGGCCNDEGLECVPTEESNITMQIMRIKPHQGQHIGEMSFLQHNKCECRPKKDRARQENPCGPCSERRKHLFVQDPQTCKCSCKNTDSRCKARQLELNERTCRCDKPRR
T3 sequence (P01031 19-673, chain 1 of 2): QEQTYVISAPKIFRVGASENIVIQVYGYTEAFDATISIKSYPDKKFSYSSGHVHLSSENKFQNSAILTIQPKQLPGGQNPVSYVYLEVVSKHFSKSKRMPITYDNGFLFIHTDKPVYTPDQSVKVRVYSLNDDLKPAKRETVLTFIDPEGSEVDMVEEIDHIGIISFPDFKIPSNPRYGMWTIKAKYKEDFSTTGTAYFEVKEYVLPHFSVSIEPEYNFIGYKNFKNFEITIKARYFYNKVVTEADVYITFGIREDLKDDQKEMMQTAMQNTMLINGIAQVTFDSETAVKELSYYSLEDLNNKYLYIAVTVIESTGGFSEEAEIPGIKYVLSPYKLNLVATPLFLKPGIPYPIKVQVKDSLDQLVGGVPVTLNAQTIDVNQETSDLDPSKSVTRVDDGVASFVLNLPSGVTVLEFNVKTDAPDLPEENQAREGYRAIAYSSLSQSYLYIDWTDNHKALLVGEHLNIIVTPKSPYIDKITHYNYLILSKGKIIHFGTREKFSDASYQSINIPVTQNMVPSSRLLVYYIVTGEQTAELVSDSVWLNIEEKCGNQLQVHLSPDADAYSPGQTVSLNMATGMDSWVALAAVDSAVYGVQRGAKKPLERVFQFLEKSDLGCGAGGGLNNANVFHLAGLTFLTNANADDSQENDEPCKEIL
T3 sequence (P01031 678-1676, chain 2 of 2): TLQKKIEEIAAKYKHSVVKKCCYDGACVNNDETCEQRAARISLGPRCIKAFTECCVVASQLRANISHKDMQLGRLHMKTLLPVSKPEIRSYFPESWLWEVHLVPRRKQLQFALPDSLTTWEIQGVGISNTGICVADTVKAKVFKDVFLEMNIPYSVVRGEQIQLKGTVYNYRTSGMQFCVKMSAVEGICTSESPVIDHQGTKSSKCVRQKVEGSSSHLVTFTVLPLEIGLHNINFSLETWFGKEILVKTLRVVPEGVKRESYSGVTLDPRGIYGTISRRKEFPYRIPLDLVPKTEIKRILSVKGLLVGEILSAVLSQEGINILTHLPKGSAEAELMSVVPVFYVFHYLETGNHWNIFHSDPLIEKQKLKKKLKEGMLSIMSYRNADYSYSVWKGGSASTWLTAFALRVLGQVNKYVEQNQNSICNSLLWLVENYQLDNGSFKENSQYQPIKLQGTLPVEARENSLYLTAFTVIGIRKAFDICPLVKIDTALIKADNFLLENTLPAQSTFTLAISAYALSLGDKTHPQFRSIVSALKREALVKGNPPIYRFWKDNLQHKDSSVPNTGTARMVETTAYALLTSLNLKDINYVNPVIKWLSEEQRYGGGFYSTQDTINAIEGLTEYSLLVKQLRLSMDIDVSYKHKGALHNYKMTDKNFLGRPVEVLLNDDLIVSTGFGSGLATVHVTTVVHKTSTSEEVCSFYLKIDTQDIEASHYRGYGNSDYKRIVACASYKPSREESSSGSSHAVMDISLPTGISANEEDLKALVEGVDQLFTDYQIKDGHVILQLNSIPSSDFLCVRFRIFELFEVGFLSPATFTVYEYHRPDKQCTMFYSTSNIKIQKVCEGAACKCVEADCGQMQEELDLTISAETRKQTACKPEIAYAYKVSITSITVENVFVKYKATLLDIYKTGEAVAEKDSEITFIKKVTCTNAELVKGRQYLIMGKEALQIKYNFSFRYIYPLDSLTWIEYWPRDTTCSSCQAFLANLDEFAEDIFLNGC

B1: ARC789 (AMX(192)_A5) (mixed)
DNA: GGGAGAGGAGAGAACGTTCTACGTTTGCGGTCAGGATGGGGTGGTGGGAGGTCGATCGATCGATCATCGATG
modifications: dRmY: deoxy A,G; 2'-OMe C,U (cDNA printed, T=U)
As usually defined, the IC50 is the point on the concentration scale where inhibition reaches its midpoint. As usually defined, the Kd is the equilibrium constant for the complex coming apart. A high value points to a looser complex. Molecule B1 returned an IC50 with IFN-gamma [1] of 40 nM. Also, the Kd with IFN-gamma [2] is 150 nM.

B2: ARC872 (mixed)
RNA: GGGCGGUUGGGGUCGGGGAGGAUGGUACAGGG
modifications: dRmY: deoxy A,G; 2'-OMe C,U
B2: the IC50 in the series with IFN-gamma [3] amounted to 200 nM.

B3: ARC820 (AMX(192)_D11) (mixed)
DNA: GGGAGAGGAGAGAACGTTCTACGGGGAGGAGGGTGGGGTAGCAGGTGTGGCAGGTCGATCGATCGATCATCGATG
modifications: dRmY: deoxy A,G; 2'-OMe C,U (cDNA printed, T=U)
For B3, binding in the series with IFN-gamma [4] was put at a Kd of 170 nM. In the series with IFN-gamma [5], this molecule showed an IC50 of 280 nM.

B4: ARC245 (ssRNA)
RNA: AUGCAGUUUGAGAAGUCGCGCAU
modifications: 2'-OMe at all residues; 3'-inverted dT [2'-OMe at 1-23; 3'-inverted dT after nt 23 (not written in sequence)]
Consider B4, for which binding in the series with VEGF [6] was characterised by a dissociation constant (Kd) of 2.1 nM.

B5: AMX221.E1 (mixed)
DNA: GGGAGAGGAGAGAACGTTCTACCTTGGTTTGGCACAGGCATACATACGCAGGGGTCGATCGATCGATCATCGATG
modifications: dRmY: deoxy A,G; 2'-OMe C,U (cDNA printed, T=U)
Molecule B5 yielded an IC50 in series [7] of around 30 nM. The molecule further displayed a Kd in series [8] of around 140 nM.

B6: ARC873 (mixed)
RNA: GGGUGGCUGGGGCAGGGGAGGUAGGUAGGG
modifications: dRmY: deoxy A,G; 2'-OMe C,U
On to B6, for which the midpoint of inhibition with IFN-gamma [9], the IC50, lay at 330 nM.

B7: ARC819 (AMX(192)_F3) (mixed)
DNA: GGGAGAGGAGAGAACGTTCTACGGGCGGTTGGGGTCGGGGAGGATGGTACAGGGTCGATCGATCGATCATCGATG
modifications: dRmY: deoxy A,G; 2'-OMe C,U (cDNA printed, T=U)
B7 displayed a dissociation constant (Kd) with IFN-gamma [10] of 180 nM.

B8: ARC259 (ssRNA)
RNA: ACGCAGUUUGAGAAGUCGCGCGU
modifications: 2'-OMe at all residues; 3'-inverted dT [2'-OMe at 1-23; 3'-inverted dT after nt 23 (not written in sequence); base pair swap at 2 (U>C) and 22 (A>G)]
With B8, the Kd in the series with VEGF [11] amounted to 1.4 nM.

B9: ARC224 (ssRNA)
RNA: CGAUAUGCAGUUUGAGAAGUCGCGCAUUCG
modifications: 2'-OMe at all residues; 3'-inverted dT [2'-OMe at 1-30; 3'-inverted dT after nt 30 (not written in sequence)]
Consider B9, for which the IC50 in the series with VEGF [12] is around 2 nM. Further, in the series with VEGF [6], the Kd turned out to be 3.9 nM.

B10: ARC818 (AMX(192)_E3) (mixed)
DNA: GGGAGAGGAGAGAACGTTCTACGGGTGGCTGGGGCAGGGGAGGTAGGTAGGGTCGATCGATCGATCATCGATG
modifications: dRmY: deoxy A,G; 2'-OMe C,U (cDNA printed, T=U)
Consider B10, for which, in the series with IFN-gamma [13], the Kd amounted to 180 nM. This molecule gave a 50% inhibitory concentration (IC50) in the series with IFN-gamma [14] of 220 nM.

B11: ARC821 (AMX(216)_A7) (mixed)
DNA: GGGAGAGGAGAGAACGTTCTACGGGGGTCGTGGGAGTAAGGGGGTGTAGGTAGGTCGATCGATCGATCATCGATG
modifications: dRmY: deoxy A,G; 2'-OMe C,U (cDNA printed, T=U)
As for B11, binding with IFN-gamma [15] was put at a Kd of 140 nM. The same molecule returned a half-inhibitory concentration (IC50) in the series with IFN-gamma [16] of 130 nM.
